Data as given in PMC4030953, “Pyranose Dehydrogenase from Agaricus campestris and Agaricus xanthoderma: Characterization and Applications in Carbohydrate Conversions” (Biomolecules, 2013).

B1: AcPDH (Agaricus campestris) (protein)
chain: AITYQHPDDLPGDVDYDFIVAGGGTAGLVVASRLGENSKWNVLVIEAGPSNKDVFATRVPGLAETLPTSHIDWNYTTVPQQALGGRSLNYSRAMILGGCSTHNGMVYTRGSKDDWNKWADVTGNRDLSWDSILPIMKKVEKFSEDFSDQSVEGHIDPSVHGNDGKLSVVASYTNVSFNDLLLETTKELVDEFPFKLDMNDGNPVGLTWNQYTIDHNAERSSSATAYLESTGDNVHVLLNTRVTRIVPTGKTNFRTVEFAVDAGGPRKQLTAKKEVILSGGFIASPQILMNSGIGDQEALKAVGVDTLVNNPSVGKNVSDQAATLVLFDTTLPNTDFDVDAAIVEWNNSHAGPLATGAPLNHLIWVRLSDDKLSGSDPSSGKDSPHIEFQFSKISHRIPPANVPNQVALPSQDSIGVVIQFSVVNLNSISRGSVSLNDNNPFSHPLIDLNMLGEEQDIAILREGVHSARRMLSSEAFKPFVNGSVHPPANITSDEDLDAFLHTTTKSYLHGVGTLSMSPQNASWGVVDPDFRVKGTTGLRVVDASVIPSVPAGHTQTPVYAFAEYASIVIAKSYN
B2: AxPDH (Agaricus xanthodermus) (protein)
chain: AITYQHPDDLPSNVNYDFIVAGGGTAGLVVASRLSENSDWNILVIEAGPSNKDTPETRVPGLADSLPGSRTDWNYTTIPQDALGGRSLNYSRAKVLGGCSTHNGMVYTRGSEDDWNYWAEVTGDQALSWDSVLPIMKKAEKFSQDFSDQSVDGHIDPAVHGRDGLLSVVASYTNVSFNDLLLQTTKELSDEFPFKLDLNDGKPHELAWTQYTIDHNAERSSSATSYLETTGDNVHVLVNTHVTRIVSAGNGTNFRSVEFAVDSNSPKKVLQAKKELILSAGVIASPQVLMNSGIGGREELQAIGVDTLIDNPSVGKNLSDQAATLLMFDTTLPNTDYDVAAALTEWDKSRSGPMAHGARLNHLTWVRLPDDKLNGSDPSSGKDSPHIEFQFRQISHQLPPADVPNQVQLPDPDSIGVVLQFSVVNLYSISPGSVILNDNDPFANPMIDLNMFGDQKDIAILREGVRSARRMFSSPAFKDVINGTVYPPADVTSDEDLDAFLRTSAESYWHGVGTLSMSPQNASWGVVNPDFRVKGTSGLRVVDASVIPRAPAGHTQVPVYTFAEHASVLIAASYH

What was measured:
Assay in all cases: spectrophotometric electron acceptor reduction
Settings in all cases: apparent, 25 mM D-glucose, pH 4, 30 °C
[1] = substrate: O=C1C(Cl)=CC(=Nc2ccc(O)cc2)C=C1Cl; assay type: biochemical, Agaricus campestris
Source text: (§1) spectrophotometric electron acceptor reduction on AcPDH

[2] = substrate: O=C1C=CC(=O)C=C1; assay type: biochemical, Agaricus campestris
Source text: as §1

[3] = substrate: O=C1C(Cl)=CC(=Nc2ccc(O)cc2)C=C1Cl; assay type: biochemical, Agaricus xanthodermus
Source text: (§2) spectrophotometric electron acceptor reduction on AxPDH

[4] = substrate: O=C1C=CC(=O)C=C1; assay type: biochemical, Agaricus xanthodermus
Source text: as §2

| Protein | Km [1] [µM] | kcat [1] [s⁻¹] | kcat/Km [1] [M⁻¹ s⁻¹] | Km [2] [µM] | kcat [2] [s⁻¹] | kcat/Km [2] [M⁻¹ s⁻¹] | Km [3] [µM] | kcat [3] [s⁻¹] | kcat/Km [3] [M⁻¹ s⁻¹] | Km [4] [µM] | kcat [4] [s⁻¹] | kcat/Km [4] [M⁻¹ s⁻¹] |
| --- | --- | --- | --- | --- | --- | --- | --- | --- | --- | --- | --- | --- |
| B1 | 110 ± 0 | 10.6 ± 0.57 | 96000 | 120 ± 10 | 34.8 ± 1.02 | 303000 | – | – | – | – | – | – |
| B2 | – | – | – | – | – | – | 90 ± 10 | 7.65 ± 0.66 | 85000 | 3250 ± 510 | 12.9 ± 1.56 | 4000 |
